The target of this assay is T1, PTH receptor (PTH1R), parathyroid hormone type 1 receptor, on mouse astrocytes (mouse, UniProt P41593 27-591).
T1 construct: whole, on cells; Endogenous receptor of mouse cells; not isolated or expressed recombinantly
T1 sequence (looked up): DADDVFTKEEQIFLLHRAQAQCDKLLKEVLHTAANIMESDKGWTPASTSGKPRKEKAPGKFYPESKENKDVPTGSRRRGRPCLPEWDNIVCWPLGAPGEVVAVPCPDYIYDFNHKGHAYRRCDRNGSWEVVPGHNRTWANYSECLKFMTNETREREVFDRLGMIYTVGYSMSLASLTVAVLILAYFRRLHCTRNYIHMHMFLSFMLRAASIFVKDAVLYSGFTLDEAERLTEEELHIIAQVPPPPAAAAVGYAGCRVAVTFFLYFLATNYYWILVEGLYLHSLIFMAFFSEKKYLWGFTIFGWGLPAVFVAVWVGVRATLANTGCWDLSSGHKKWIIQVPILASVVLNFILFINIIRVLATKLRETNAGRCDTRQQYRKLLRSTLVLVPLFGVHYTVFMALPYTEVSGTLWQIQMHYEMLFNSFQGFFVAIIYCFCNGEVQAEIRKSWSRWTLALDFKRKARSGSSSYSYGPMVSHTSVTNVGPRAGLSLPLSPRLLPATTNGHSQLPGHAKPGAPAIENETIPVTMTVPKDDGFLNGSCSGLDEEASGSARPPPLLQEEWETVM
The assay can be described thus: summary sentence of the example; inferred from Biotin-PTH1-34 co-staining with astrocytes, PTH1R expression and signalling in cultured astrocytes.

The results in this text go back to US20240299504A1, “COMPOSITIONS AND METHODS FOR TREATING ALZHEIMERS DISEASE” (priority 2023, published 2024).

B1: Parathyroid hormone (human) PTH1-34 (TOCRIS Bioscience, Cat #3011/1) (peptide, UniProt P01270 32-65, looked up)
peptide: SVSEIQLMHNLGKHLNSMERVEWLRKKLQDVHNF
notes: range 1-34; Residues 1-34 count on mature PTH, not on the precursor; also called hPTH1-34; Teriparatide
Turning to B1, the binding result is given as “binds”.
